Assay results as given in US20160185837A1 (Medimmune Limited, priority 2013, published 2016).
Residue numbers refer to the chain shown, from its start.

T1: human GIP receptor (hGIPr) (Homo sapiens, UniProt P48546)
T1 construct: expressed in transfected cells
T1 sequence (P48546 22-466): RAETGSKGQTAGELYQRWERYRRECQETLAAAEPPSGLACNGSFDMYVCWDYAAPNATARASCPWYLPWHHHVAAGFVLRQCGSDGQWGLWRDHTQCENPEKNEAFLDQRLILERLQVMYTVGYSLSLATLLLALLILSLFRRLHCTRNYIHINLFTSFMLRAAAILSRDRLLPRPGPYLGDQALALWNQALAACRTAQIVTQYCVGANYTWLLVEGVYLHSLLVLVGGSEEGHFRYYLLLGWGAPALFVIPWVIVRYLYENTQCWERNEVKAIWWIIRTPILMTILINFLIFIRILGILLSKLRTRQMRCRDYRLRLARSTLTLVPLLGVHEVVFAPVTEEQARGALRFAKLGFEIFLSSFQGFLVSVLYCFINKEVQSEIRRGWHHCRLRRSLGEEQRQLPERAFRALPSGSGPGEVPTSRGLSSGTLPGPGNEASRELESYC

B1: IP132 (protein)
chain: HGEGTFTSDVSSYLEGQAAKEFIAWLVKGGGGGGSGGGGSGGGGSGGGGSATHTCPPCPAPEF
modifications: /note=“Description of Artificial Sequence Synthetic Peptide-linker-hinge polypeptide”
B2: IP191 (protein)
chain: HGEGTFTSDVSSYLEGQAAKEFIAWLVKGAAAGGSGSTASSGSGSATGGGGAATYTCPPCPAPEF
modifications: /note=“Description of Artificial Sequence Synthetic Peptide-linker-hinge polypeptide”
B3: IP192 (protein)
chain: B2 chain with Y55S
modifications: /note=“Description of Artificial Sequence Synthetic Peptide-linker-hinge polypeptide”
B4: IP197 (protein)
chain: YSEGTFTSDVSSYMERQAIDEFIAWLLAGAAAGGSGSTASSGSGSATGGGGAATHTCPPCPAPEF
modifications: /note=“Description of Artificial Sequence Synthetic Peptide-linker-hinge polypeptide”
B5: IP199: isolated polypeptide named in b21; sequence stands in a table not shown here (protein)
chain: B2 chain with V27L, K28A, Y55H
modifications: /note=“Description of Artificial Sequence Synthetic Peptide-linker-hinge polypeptide”
B6: IP208: isolated polypeptide named in b21; sequence stands in a table not shown here (protein)
chain: B4 chain with M14L, R16G, I19A, D20K
modifications: /note=“Description of Artificial Sequence Synthetic Peptide-linker-hinge polypeptide”
B7: IP230 (protein)
chain: B2 chain with Y55H
modifications: /note=“Description of Artificial Sequence Synthetic Peptide-linker-hinge polypeptide”
B8: IP173: isolated polypeptide named in b21; sequence stands in a table not shown here (protein)
chain: B4 chain with M14L, R16E, I19A, D20K
modifications: /note=“Description of Artificial Sequence Synthetic Peptide-linker-hinge polypeptide”
B9: IP233 (protein)
chain: B2 chain with G16E, Y55H
modifications: /note=“Description of Artificial Sequence Synthetic Peptide-linker-hinge polypeptide”
B10: IP171: Fc fusion, IgG1-TM, SEQ ID NO:142; agonist peptide YSEGTFTSDVSSYMERQAISEFIAWLLAG (protein)
chain: B4 chain with D20S
modifications: also: Fc fusion, IgG1-TM
notes: agonist peptide YSEGTFTSDVSSYMERQAISEFIAWLLAG
B11: IP204: isolated polypeptide named in b21; sequence stands in a table not shown here (protein)
chain: HGEGTFISDYSIAMDKIHQQDFVNWLLAQKAAAGGSGSTASSGSGSATGGGGAATHTCPPCPAPEF
modifications: /note=“Description of Artificial Sequence Synthetic Peptide-linker-hinge polypeptide”
B12: IP195 (protein)
chain: HGEGTFTSDVSSYLEGQAAKEFIAWLVKGAAAGGSGSTASSGSGSATGGGGESKYGPPCPPCPAPEF
modifications: /note=“Description of Artificial Sequence Synthetic Peptide-linker-hinge polypeptide”
B13: IP150: isolated polypeptide named in b21; sequence stands in a table not shown here (protein)
chain: YSEGTFTSDVSSYLEGQAAKEFIAWLVAGGAPPGGSGSTASSGSGSATGGGGAATHTCPPCPAPEF
modifications: /note=“Description of Artificial Sequence Synthetic Peptide-linker-hinge polypeptide”
B14: IP174: isolated polypeptide named in b21; sequence stands in a table not shown here (protein)
chain: B13 chain with Y1H, S2G, G16E, Q17E, P32A, P33A
modifications: /note=“Description of Artificial Sequence Synthetic Peptide-linker-hinge polypeptide”
B15: IP187 (protein)
chain: HGEGTFTSDVSSYLEGQAAKEFIAWLVKGAPPGGGGGSGGGGSGGGGSGGGGSATHTCPPCPAPEF
modifications: /note=“Description of Artificial Sequence Synthetic Peptide-linker-hinge polypeptide”
B16: IP194 (protein)
chain: HGEGTFTSDVSSYLEGQAAKEFIAWLVKGAAAGGSGSTASSGSGSATGGGGPPCPPCPAPEF
modifications: /note=“Description of Artificial Sequence Synthetic Peptide-linker-hinge polypeptide”
B17: IP227 (protein)
chain: YSEGTFTSDVSSYMERQAIDEFVNDLLKGGAAAGGSGSTASSGSGSATGGGGAATHTCPPCPAPEF
modifications: /note=“Description of Artificial Sequence Synthetic Peptide-linker-hinge polypeptide”
B18: IP176: Fc fusion, IgG1-TM, SEQ ID NO:143; agonist peptide YSEGTFTSDVSSYMERQAISEFIAWLLKGP (protein)
chain: B17 chain with D20S, V23I, N24A, D25W, G30P
modifications: also: Fc fusion, IgG1-TM
notes: agonist peptide YSEGTFTSDVSSYMERQAISEFIAWLLKGP
B19: IP224 (protein)
chain: B17 chain with V23I, N24A, D25W, K28G
modifications: /note=“Description of Artificial Sequence Synthetic Peptide-linker-hinge polypeptide”

Each molecule was assayed against T2, human GLP-1 receptor (hGLP-1r) (Homo sapiens, UniProt P43220) (assay: BSA-cAMP assay, cells expressing human GLP-1 receptor). Conditions: BSA-cAMP assay; batch 1 unless a batch is given; read-out: cAMP activity hGLP1r (EC50).
T2 construct: expressed in transfected cells
Assay type: cell-based
Protocol: (§1) One basic cAMP assays was performed, differing in the medium used for the assay, the “BSA-cAMP assay”:
(§2) BSA-based assay medium: 0.1% bovine serum albumin (BSA) in
(§3) In certain aspects, the assay can also be carried out in medium supplemented with serum albumin that corresponds to the receptor being tested, e.g., human serum albumin for testing cAMP activity at hGIPr or hGLP-1r, rat serum albumin for testing cAMP activity at rGIPr or rGLP-1r, and so on. […] All sample dilutions were made in duplicate.
(§4) A frozen cryo-vial of cells expressing the receptor of interest was thawed rapidly in a water-bath, transferred to pre-warmed assay media and spun at 240×g for 5 minutes. Cells were re-suspended in assay buffer at an optimized concentration (e.g., hGLP-1r and hGIPr cells at 0.5×10^5 cells/ml).
(§5) To this, 5 μL cell suspension was added and the plates incubated at room temperature for 30 minutes.
(§6) cAMP levels were measured using a commercially available cAMP dynamic 2 HTRF kit (Cisbio, Cat #62AM4PEJ), following the two step protocol as per manufacturer's recommendations. In brief; anti-cAMP cryptate (donor fluorophore) and cAMP-d2 (acceptor fluorophore) were made up separately by diluting each 1/20 in conjugate & lysis buffer provided in the kit. 5 μL anti-cAMP cryptate was added to all wells of the assay plate, and 5 μL cAMP-d2 added to all wells except non-specific binding (NSB) wells, to which conjugate and lysis buffer was added. […] Data was transformed to % Delta F as described in manufacturer's guidelines and then transformed to percent activation of maximal native agonist response and analysed by 4-parameter logistic fit to determine EC50 values.
(§7) We used unconstrained 4 parameter logistic fit of data, curve mid-point to determine EC50. This was tested on two occasions, not two batches.

T2 sequence (P43220 24-463): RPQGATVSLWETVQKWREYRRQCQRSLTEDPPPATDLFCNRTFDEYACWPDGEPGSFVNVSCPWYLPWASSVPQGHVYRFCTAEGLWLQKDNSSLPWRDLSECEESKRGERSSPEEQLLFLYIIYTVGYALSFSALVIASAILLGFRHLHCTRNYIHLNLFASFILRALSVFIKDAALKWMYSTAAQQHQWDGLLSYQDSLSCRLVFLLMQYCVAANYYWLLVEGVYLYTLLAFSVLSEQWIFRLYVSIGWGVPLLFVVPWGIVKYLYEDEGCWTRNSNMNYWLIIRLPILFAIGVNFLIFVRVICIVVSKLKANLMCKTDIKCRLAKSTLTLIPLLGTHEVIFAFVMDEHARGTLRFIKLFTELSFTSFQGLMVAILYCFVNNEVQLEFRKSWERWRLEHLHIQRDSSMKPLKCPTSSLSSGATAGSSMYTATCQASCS

EC50 [nM]	Molecule
0.04	B1
0.057	B2
0.043	B3
0.78	B4
0.069	B5
1.6	B6
0.056	B7
0.23	B8
0.036	B9
0.53	B10
850	B11
0.061	B12
0.033	B13
0.032	B14
0.037	B15
0.061	B16
48	B17
0.6	B18
0.57	B19

The molecules below were run against T1, human GIP receptor (hGIPr) (assay: BSA-cAMP assay, cells expressing human GIP receptor). Conditions: BSA-cAMP assay; batch 1 unless a batch is given; read-out: cAMP activity hGIPr (EC50).
Assay type: cell-based
Protocol: For human GIPr, two different lines were used, shown as “hGIPr” and “hGIPr (C3)” in Table 11.
as §1, §2, §3, §4, §5, §6, §7

EC50 [nM]	Molecule
81	B1
0.18	B4
17	B6
> 15000	B7
1.2	B8
0.39	B10
0.12	B11
16	B13
460	B14
540	B15
0.42	B18
0.35	B19
